The target in this assay is RelJ antitoxin (recombinant His-tagged) (M. tuberculosis) (UniProt P9WF24). Kind of assay: native gel or EMSA. On the technique in general: In EMSA bound probe runs differently from free probe, usually more slowly.

The results in this text go back to paper PMC12239584.

Sequence of UniProt P9WF24 (P9WF24 whole entry): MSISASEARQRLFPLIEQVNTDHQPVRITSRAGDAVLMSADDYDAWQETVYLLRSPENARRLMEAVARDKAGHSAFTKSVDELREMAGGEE

For the substance “RelK toxin (recombinant His-tagged, unphosphorylated) (from UniProt P9WF08 2-85) (natural protein)”, the stoichiometry N (RelK per RelJ) amounted to 1.
